Source: article PMC7395460, “Structural mechanism of helicase loading onto replication origin DNA by ORC-Cdc6” (Proceedings of the National Academy of Sciences of the …, 2020)

Legend:
Details in all cases: both partners purified
[1] = biological target: T1, Mcm7 (S. cerevisiae, UniProt P38132 1-845); test: cryo-EM structure; pre-insertion OCCM, 8.1 Å; same loading reaction (purified ORC, Cdc6, Cdt1, mutant Mcm2-7, ARS1 DNA, ATPγS); models docked as rigid bodies
T1 construct: Mcm7 of S. cerevisiae; Stood in the assay as a subunit of the mutant Mcm2-7; in the semi-attached OCCM only its WHD is resolved
T1 sequence (looked up): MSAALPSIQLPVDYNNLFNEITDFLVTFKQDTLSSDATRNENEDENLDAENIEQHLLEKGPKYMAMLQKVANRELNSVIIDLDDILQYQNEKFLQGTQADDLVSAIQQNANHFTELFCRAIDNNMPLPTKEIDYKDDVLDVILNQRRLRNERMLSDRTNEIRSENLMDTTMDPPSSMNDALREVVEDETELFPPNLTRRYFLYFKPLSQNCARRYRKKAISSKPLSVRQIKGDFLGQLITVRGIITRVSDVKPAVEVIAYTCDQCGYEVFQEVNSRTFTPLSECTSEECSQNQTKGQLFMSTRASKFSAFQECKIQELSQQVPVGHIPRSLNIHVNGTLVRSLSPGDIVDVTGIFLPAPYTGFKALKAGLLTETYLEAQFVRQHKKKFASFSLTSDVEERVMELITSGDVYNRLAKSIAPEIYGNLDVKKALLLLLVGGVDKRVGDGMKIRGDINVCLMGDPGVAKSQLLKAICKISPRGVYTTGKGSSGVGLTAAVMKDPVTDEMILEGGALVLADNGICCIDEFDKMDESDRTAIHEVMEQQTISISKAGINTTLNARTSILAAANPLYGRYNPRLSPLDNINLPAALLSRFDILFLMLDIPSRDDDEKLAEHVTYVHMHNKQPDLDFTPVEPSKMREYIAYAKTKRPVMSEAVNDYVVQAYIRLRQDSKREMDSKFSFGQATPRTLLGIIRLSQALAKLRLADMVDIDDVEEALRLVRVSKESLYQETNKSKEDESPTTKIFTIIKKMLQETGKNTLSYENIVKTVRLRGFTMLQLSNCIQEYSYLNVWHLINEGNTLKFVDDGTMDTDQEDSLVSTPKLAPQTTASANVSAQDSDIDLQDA

[2] = biological target: T2, Mcm3 (S. cerevisiae, UniProt P24279 1-971); test: as above
T2 construct: Mcm3 of S. cerevisiae; Stood in the assay as a subunit of the mutant Mcm2-7; in the semi-attached OCCM only its WHD is resolved
T2 sequence (P24279 whole entry): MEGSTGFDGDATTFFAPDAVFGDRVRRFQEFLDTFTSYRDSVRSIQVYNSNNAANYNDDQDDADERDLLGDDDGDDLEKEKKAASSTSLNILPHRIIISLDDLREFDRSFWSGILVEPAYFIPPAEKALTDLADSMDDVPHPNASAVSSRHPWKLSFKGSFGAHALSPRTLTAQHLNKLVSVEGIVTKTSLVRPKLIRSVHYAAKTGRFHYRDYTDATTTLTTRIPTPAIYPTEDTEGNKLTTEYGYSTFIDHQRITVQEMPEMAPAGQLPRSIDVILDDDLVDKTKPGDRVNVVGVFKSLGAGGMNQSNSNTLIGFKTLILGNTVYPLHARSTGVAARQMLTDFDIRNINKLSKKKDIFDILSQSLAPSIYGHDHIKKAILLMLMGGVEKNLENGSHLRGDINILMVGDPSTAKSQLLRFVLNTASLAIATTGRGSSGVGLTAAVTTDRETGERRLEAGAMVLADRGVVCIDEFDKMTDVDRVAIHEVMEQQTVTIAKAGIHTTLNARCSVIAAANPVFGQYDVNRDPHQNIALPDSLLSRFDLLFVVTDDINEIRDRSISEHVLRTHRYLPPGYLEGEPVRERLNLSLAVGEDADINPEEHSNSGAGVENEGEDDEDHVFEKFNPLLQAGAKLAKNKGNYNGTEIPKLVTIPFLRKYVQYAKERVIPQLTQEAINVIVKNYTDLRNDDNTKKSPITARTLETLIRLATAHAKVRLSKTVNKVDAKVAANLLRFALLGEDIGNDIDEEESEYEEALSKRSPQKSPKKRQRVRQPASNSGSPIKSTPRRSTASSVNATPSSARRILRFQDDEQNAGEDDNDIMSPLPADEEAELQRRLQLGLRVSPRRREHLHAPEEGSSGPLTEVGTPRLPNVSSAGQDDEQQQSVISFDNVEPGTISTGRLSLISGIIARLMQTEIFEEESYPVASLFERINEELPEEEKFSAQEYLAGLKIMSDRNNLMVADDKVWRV

[3] = biological target: T3, origin recognition complex (Orc1-6; ORC) (S. cerevisiae, UniProt P54784 1-914; P32833 1-620; P54790 1-616; P54791 1-529; P50874 1-479; P38826 …); test: cryo-EM structure; semi-attached OCCM, 4.3 Å; assembled from purified ORC, Cdc6, Cdt1 and mutant Mcm2-7 on pUC19-ARS1 DNA beads with 3 mM ATPγS, 15 min at 24 °C, eluted with DNase I
T3 construct: Orc1, subunit of the S. cerevisiae origin recognition complex; Orc2, subunit of the S. cerevisiae origin recognition complex; Orc3, subunit of the S. cerevisiae origin recognition complex; Orc4, subunit of the S. cerevisiae origin recognition complex; Orc5, subunit of the S. cerevisiae origin recognition complex; Orc6, subunit of the S. cerevisiae origin recognition complex; copies: + + + + +

[4] = biological target: T4, Orc1 (S. cerevisiae, UniProt P54784 1-914); test: as above
T4 construct: Orc1, subunit of the S. cerevisiae origin recognition complex; Stood in the assay as a subunit of ORC
T4 sequence: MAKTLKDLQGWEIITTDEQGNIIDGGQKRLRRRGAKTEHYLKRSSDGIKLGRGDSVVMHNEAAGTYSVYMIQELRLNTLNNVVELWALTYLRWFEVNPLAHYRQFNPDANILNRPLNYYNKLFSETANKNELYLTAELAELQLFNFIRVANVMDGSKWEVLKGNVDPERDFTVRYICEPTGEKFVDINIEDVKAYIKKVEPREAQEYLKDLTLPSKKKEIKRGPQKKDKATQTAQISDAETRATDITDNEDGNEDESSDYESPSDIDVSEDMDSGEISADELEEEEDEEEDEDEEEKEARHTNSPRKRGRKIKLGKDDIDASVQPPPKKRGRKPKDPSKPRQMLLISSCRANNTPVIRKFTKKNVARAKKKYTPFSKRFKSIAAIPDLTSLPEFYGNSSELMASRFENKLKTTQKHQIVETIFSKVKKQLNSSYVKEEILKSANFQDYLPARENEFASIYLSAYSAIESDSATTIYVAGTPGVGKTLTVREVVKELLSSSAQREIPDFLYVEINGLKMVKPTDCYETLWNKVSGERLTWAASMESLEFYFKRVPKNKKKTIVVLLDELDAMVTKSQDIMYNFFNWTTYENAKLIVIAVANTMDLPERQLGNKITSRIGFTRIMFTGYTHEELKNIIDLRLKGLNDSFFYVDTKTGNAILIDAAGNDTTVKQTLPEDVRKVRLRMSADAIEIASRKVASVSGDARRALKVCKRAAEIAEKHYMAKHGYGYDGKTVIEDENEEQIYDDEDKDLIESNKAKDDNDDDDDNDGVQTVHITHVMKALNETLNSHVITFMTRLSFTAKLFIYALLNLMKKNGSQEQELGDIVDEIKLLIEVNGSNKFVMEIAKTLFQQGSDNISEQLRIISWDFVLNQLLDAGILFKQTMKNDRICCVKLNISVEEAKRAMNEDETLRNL

binding result [1]: binds
binding result [2]: binds
binding result [3]: binds
binding result [4]: binds
B1: Cdc6 (natural protein, S. cerevisiae)
chain: MSAIPITPTKRIRRNLFDDAPATPPRPLKRKKLQFTDVTPESSPEKLQFGSQSIFLRTKALLQKSSELVNLNSSDGALPARTAEYEQVMNFLAKAISEHRSDSLYITGPPGTGKTAQLDMIIRQKFQSLPLSLSTPRSKDVLRHTNPNLQNLSWFELPDGRLESVAVTSINCISLGEPSSIFQKIFDSFQDLNGPTLQIKNMQHLQKFLEPYHKKTTFVVVLDEMDRLLHANTSETQSVRTILELFLLAKLPTVSFVLIGMANSLDMKDRFLSRLNLDRGLLPQTIVFQPYTAEQMYEIVIQKMSSLPTIIFQPMAIKFAAKKCAGNTGDLRKLFDVLRGSIEIYELEKRFLLSPTRGSLNSAQVPLTPTTSPVKKSYPEPQGKIGLNYIAKVFSKFVNNNSTRTRIAKLNIQQKLILCTIIQSLKLNSDATIDESFDHYIKAITKTDTLAPLQRNEFLEICTILETCGLVSIKKTKCKGKTKRFVDKIDVDLDMREFYDEMTKISILKPFLH
notes: Cdc6 of S. cerevisiae
